B1: EHEE_rd3_0053 (parent)
chain: TYTFKVDNKDQAKKAAKWAKKLGLSFQIEKHGDTFKITVQ

Variants of: B1
Assay: folding stability dG (cDNA display proteolysis); higher = more stable
Conditions: PBS, room temperature

| Variant | folding stability dG |
| --- | --- |
| TYTFKVDNKDQAKKAAKWAKKLGLSFQIEKHGDTFKITNQ | -0.981 kcal/mol |
| TYTFKVDNKDQAKKAAKWAKKLGLSFQIEKHGDTFKITFQ | 2.06 kcal/mol |
| TYTFKVDNKDQAKKAAKWAKKLGLSFQIEKHGDTFKITAQ | 0.718 kcal/mol |
| TYTFKVDNKDQAKKAAKWAKKLGLSFQIEKHGDTFKITCQ | 1.68 kcal/mol |
| TYTFKVDNKDQAKKAAKWAKKLGLSFQIEKHGDTFKITDQ | -0.839 kcal/mol |
| TYTFKVDNKDQAKKAAKWAKKLGLSFQIEKHGDTFKITHQ | -0.097 kcal/mol |
| TYTFKVDNKDQAKKAAKWAKKLGLSFQIEKHGDTFKITIQ | 2.82 kcal/mol |
| TYTFKVDNKDQAKKAAKWAKKLGLSFQIEKHGDTFKITGQ | -0.471 kcal/mol |
| TYTFKVDNKDQAKKAAKWAKKLGLSFQIEKHGDTFKITRQ | -0.567 kcal/mol |
| TYTFKVDNKDQAKKAAKWAKKLGLSFQIEKHGDTFKITMQ | 1.86 kcal/mol |
| TYTFKVDNKDQAKKAAKWAKKLGLSFQIEKHGDTFKITQQ | -0.762 kcal/mol |
| TYTFKVDNKDQAKKAAKWAKKLGLSFQIEKHGDTFKITPQ | -0.963 kcal/mol |
| TYTFKVDNKDQAKKAAKWAKKLGLSFQIEKHGDTFKITLQ | 2.23 kcal/mol |
| TYTFKVDNKDQAKKAAKWAKKLGLSFQIEKHTDTFKITVQ | 0.996 kcal/mol |
| TYTFKVDNKDQAKKAAKWAKKLGLSFQIEKHFDTFKITVQ | 1.65 kcal/mol |
| TYTFKVDNKDQAKKAAKWAKKLGLSFQIEKHLDTFKITVQ | 1.7 kcal/mol |
| TYTFKVDNKDQAKKAAKWAKKLGLSFQIEKHKDTFKITVQ | 1.77 kcal/mol |
| TYTFKVDNKDQAKKAAKWAKKLGLSFQIEKHPDTFKITVQ | 0.72 kcal/mol |
| TYTFKVDNKDQAKKAAKWAKKLGLSFQIEKHQDTFKITVQ | 1.76 kcal/mol |
| TYTFKVDNKDQAKKAAKWAKKLGLSFQIEKHMDTFKITVQ | 1.7 kcal/mol |
| TYTFKVDNKDQAKKAAKWAKKLGLSFQIEKHNDTFKITVQ | 1.96 kcal/mol |
| TYTFKVDNKDQAKKAAKWAKKLGLSFQIEKHHDTFKITVQ | 1.61 kcal/mol |
| TYTFKVDNKDQAKKAAKWAKKLGLSFQIEKHIDTFKITVQ | 1.21 kcal/mol |
| TYTFKVDNKDQAKKAAKWAKKLGLSFQIEKHSDTFKITVQ | 1.31 kcal/mol |
| TYTFKVDNKDQAKKAAKWAKKLGLSFQIEKHADTFKITVQ | 1.64 kcal/mol |

| Variant | folding stability dG |
| --- | --- |
| TYTFKVDNKDQAKKAAKWAKKLGLSFQIEKHEDTFKITVQ | 2.03 kcal/mol |
| TYTFKVDNKDQAKKAAKWAKKLGLSFQIEKHWDTFKITVQ | 1.31 kcal/mol |
| TYTFKVDNKDQAKKAAKWAKKLGLSFQIEKHYDTFKITVQ | 1.59 kcal/mol |
| TYTFKVDNKDQAKKAAKWAKKLGLSFQIEKHDDTFKITVQ | 1.85 kcal/mol |
| TYTFKVDNKDQAKKAAKWAKKLGLSFQIEKHVDTFKITVQ | 1.19 kcal/mol |
| TYTFKVDNKDQAKKAAKWAKKLGLSFQIEKHRDTFKITVQ | 1.58 kcal/mol |
| TYTFKVDNKDQAKKAAKWAKKLGLSFQIEKHCDTFKITVQ | 1.78 kcal/mol |
| TYTFKVDNKDQAKKAAKWAKKLGLSFQIEKHGDTFKWTVQ | 0.115 kcal/mol |
| TYTFKVDNKDQAKKAAKWAKKLGLSFQIEKHGDTFKLTVQ | 1.47 kcal/mol |
| TYTFKVDNKDQAKKAAKWAKKLGLSFQIEKHGDTFKATVQ | 0.507 kcal/mol |
| TYTFKVDNKDQAKKAAKWAKKLGLSFQIEKHGDTFKVTVQ | 2.35 kcal/mol |
| TYTFKVDNKDQAKKAAKWAKKLGLSFQIEKHGDTFKYTVQ | 0.365 kcal/mol |
| TYTFKVDNKDQAKKAAKWAKKLGLSFQIEKHGDTFKMTVQ | 1.51 kcal/mol |
| TYTFKVDNKDQAKKAAKWAKKLGLSFQIEKHGDTFKFTVQ | 2.15 kcal/mol |
| TYTFKVDNKDQAKKAAKWAKKLGLSFQIEKHGDTYKITVQ | 2.75 kcal/mol |
| TYTFKVDNKDQAKKAAKWAKKLGLSFQIEKHGDTGKITVQ | -0.794 kcal/mol |
| TYTFKVDNKDQAKKAAKWAKKLGLSFQIEKHGDTAKITVQ | 0.298 kcal/mol |
| TYTFKVDNKDQAKKAAKWAKKLGLSFQIEKHGDTVKITVQ | 1.16 kcal/mol |
| TYTFKVDNKDQAKKAAKWAKKLGLSFQIEKHGDTQKITVQ | 0.075 kcal/mol |
| TYTFKVDNKDQAKKAAKWAKKLGLSFQIEKHGDTLKITVQ | 1.49 kcal/mol |
| TYTFKVDNKDQAKKAAKWAKKLGLSFQIEKHGDTWKITVQ | 2.75 kcal/mol |
| TYTFKVDNKDQAKKAAKWAKKLGLSFQIEKHGDTIKITVQ | 1.85 kcal/mol |
| TYTFKVDNKDQAKKAAKWAKKLGLSFQIEKHGDTCKITVQ | 1.93 kcal/mol |
| TYTFKVDNKDQAKKAAKWAKKLGLSFQIEKHGDTRKITVQ | 0.294 kcal/mol |
| TYTFKVDNKDQAKKAAKWAKKLGLSFQIEKHGDTNKITVQ | -0.413 kcal/mol |

| Variant | folding stability dG |
| --- | --- |
| TYTFKVDNKDQAKKAAKWAKKLGLSFQIEKHGDTHKITVQ | 0.715 kcal/mol |
| TYTFKVDNKDQAKKAAKWAKKLGLSFQIEKHGDTSKITVQ | -0.159 kcal/mol |
| TYTFKVDNKDQAKKAAKWAKKLGLSFQIEKHGDTTKITVQ | 0.632 kcal/mol |
| TYTFKVDNKDQAKKAAKWAKKLGLSFQIEKHGDTMKITVQ | 1.31 kcal/mol |
| TYTFKVDNKDQAKKAAKWAKKLGLSFQIEKHGDTKKITVQ | -0.99 kcal/mol |
| TYTFKVDNKDQAKKAAKWAKKLGLSFQIEKHGDFFKITVQ | 2.79 kcal/mol |
| TYTFKVDNKDQAKKAAKWAKKLGLSFQIEKHGDYFKITVQ | 2.92 kcal/mol |
| TYTFKVDNKDQAKKAAKWAKKLGLSFQIEKHGDRFKITVQ | 2.41 kcal/mol |
| TYTFKVDNKDQAKKAAKWAKKLGLSFQIEKHGDWFKITVQ | 2.72 kcal/mol |
| TYTFKVDNKDQAKKAAKWAKKLGLSFQIEKHGDNFKITVQ | 2.28 kcal/mol |
| TYTFKVDNKDQAKKAAKWAKKLGLSFQIEKHGDAFKITVQ | 2.64 kcal/mol |
| TYTFKVDNKDQAKKAAKWAKKLGLSFQIEKHGDSFKITVQ | 2.61 kcal/mol |
| TYTFKVDNKDQAKKAAKWAKKLGLSFQIEKHGDGFKITVQ | 3.12 kcal/mol |
| TYTFKVDNKDQAKKAAKWAKKLGLSFQIEKHGDMFKITVQ | 2.59 kcal/mol |
| TYTFKVDNKDQAKKAAKWAKKLGLSFQIEKHGDEFKITVQ | 2.4 kcal/mol |
| TYTFKVDNKDQAKKAAKWAKKLGLSFQIEKHGDDFKITVQ | 1.89 kcal/mol |
| TYTFKVDNKDQAKKAAKWAKKLGLSFQIEKHGDLFKITVQ | 2.36 kcal/mol |
| TYTFKVDNKDQAKKAAKWAKKLGLSFQIEKHGDVFKITVQ | 2.71 kcal/mol |
| TYTFKVDNKDQAKKAAKWAKKLGLSFQIEKHGDIFKITVQ | 2.68 kcal/mol |
| TYTFKVDNKDQAKKAAKWAKKLGLSFQIEKHGDKFKITVQ | 2.65 kcal/mol |
| TYTFKVDNKDQAKKAAKWAKKLGLSFQIEKHGDPFKITVQ | -0.409 kcal/mol |
| TYTFKVDNKDQAKKAAKWAKKLGLSFQIEKHGDQFKITVQ | 2.81 kcal/mol |
| TYTFKVDNKDQAKKAAKWAKKLGLSFQIEKHGDHFKITVQ | 2.92 kcal/mol |
| TYTFKVDNKDQAKKAAKWAKKLGLSFQIEKHGDTFDITVQ | 1.65 kcal/mol |
| TYTFKVDNKDQAKKAAKWAKKLGLSFQIEKHGDTFEITVQ | 2.45 kcal/mol |

| Variant | folding stability dG |
| --- | --- |
| TYTFKVDNKDQAKKAAKWAKKLGLSFQIEKHGDTFQITVQ | 2.66 kcal/mol |
| TYTFKVDNKDQAKKAAKWAKKLGLSFQIEKHGDTFIITVQ | 3.28 kcal/mol |
| TYTFKVDNKDQAKKAAKWAKKLGLSFQIEKHGDTFSITVQ | 2.52 kcal/mol |
| TYTFKVDNKDQAKKAAKWAKKLGLSFQIEKHGDTFYITVQ | 3.17 kcal/mol |
| TYTFKVDNKDQAKKAAKWAKKLGLSFQIEKHGDTFLITVQ | 3.18 kcal/mol |
| TYTFKVDNKDQAKKAAKWAKKLGLSFQIEKHGDTFHITVQ | 2.66 kcal/mol |
| TYTFKVDNKDQAKKAAKWAKKLGLSFQIEKHGDTFMITVQ | 2.94 kcal/mol |
| TYTFKVDNKDQAKKAAKWAKKLGLSFQIEKHGDTFWITVQ | 3.32 kcal/mol |
| TYTFKVDNKDQAKKAAKWAKKLGLSFQIEKHGDTFGITVQ | 1 kcal/mol |
| TYTFKVDNKDQAKKAAKWAKKLGLSFQIEKHGDTFAITVQ | 2.28 kcal/mol |
| TYTFKVDNKDQAKKAAKWAKKLGLSFQIEKHGDTFRITVQ | 2.53 kcal/mol |
| TYTFKVDNKDQAKKAAKWAKKLGLSFQIEKHGDTFFITVQ | 3.18 kcal/mol |
| TYTFKVDNKDQAKKAAKWAKKLGLSFQIEKHGDTFVITVQ | 3.14 kcal/mol |
| TYTFKVDNKDQAKKAAKWAKKLGLSFQIEKHGDTFNITVQ | 2.16 kcal/mol |
| TYTFKVDNKDQAKKAAKWAKKLGLSFQIEKHGDTFTITVQ | 2.88 kcal/mol |
| TYTFKVDNKDQAKKAAKWAKKLGLSFQIEKHGDTFKIQVQ | 1.57 kcal/mol |
| TYTFKVDNKDQAKKAAKWAKKLGLSFQIEKHGDTFKIYVQ | 1.77 kcal/mol |
| TYTFKVDNKDQAKKAAKWAKKLGLSFQIEKHGDTFKINVQ | 1.09 kcal/mol |
| TYTFKVDNKDQAKKAAKWAKKLGLSFQIEKHGDTFKILVQ | 1.78 kcal/mol |
| TYTFKVDNKDQAKKAAKWAKKLGLSFQIEKHGDTFKIRVQ | 1.72 kcal/mol |
| TYTFKVDNKDQAKKAAKWAKKLGLSFQIEKHGDTFKIFVQ | 1.71 kcal/mol |
| TYTFKVDNKDQAKKAAKWAKKLGLSFQIEKHGDTFKIDVQ | 0.562 kcal/mol |
| TYTFKVDNKDQAKKAAKWAKKLGLSFQIEKHGDTFKIEVQ | 1.1 kcal/mol |
| TYTFKVDNKDQAKKAAKWAKKLGLSFQIEKHGDTFKIVVQ | 2.01 kcal/mol |
| TYTFKVDNKDQAKKAAKWAKKLGLSFQIEKHGDTFKIHVQ | 1.8 kcal/mol |

| Variant | folding stability dG |
| --- | --- |
| TYTFKVDNKDQAKKAAKWAKKLGLSFQIEKHGDTFKIAVQ | 1.3 kcal/mol |
| TYTFKVDNKDQAKKAAKWAKKLGLSFQIEKHGDTFKIWVQ | 1.76 kcal/mol |
| TYTFKVDNKDQAKKAAKWAKKLGLSFQIEKHGDTFKIGVQ | 0.192 kcal/mol |
| TYTFKVDNKDQAKKAAKWAKKLGLSFQIEKHGDTFKIMVQ | 1.83 kcal/mol |
| TYTFKVDNKDQAKKAAKWAKKLGLSFQIEKHGDTFKIKVQ | 1.65 kcal/mol |
| TYTFKVDNKDQAKKAAKWAKKLGLSFQIEKHGDTFKISVQ | 1.81 kcal/mol |
| TYTFKVDNKDQAKKAAKWAKKLGLSFQIEKHGDTFKIIVQ | 2.34 kcal/mol |
| TYTFKVDNKDQAKKAAKWAKKLGLSFQIEKHGSTFKITVQ | 2.33 kcal/mol |
| TYTFKVDNKDQAKKAAKWAKKLGLSFQIEKHGNTFKITVQ | 2.45 kcal/mol |
| TYTFKVDNKDQAKKAAKWAKKLGLSFQIEKHGYTFKITVQ | 1.8 kcal/mol |
| TYTFKVDNKDQAKKAAKWAKKLGLSFQIEKHGTTFKITVQ | 2.37 kcal/mol |
| TYTFKVDNKDQAKKAAKWAKKLGLSFQIEKHGRTFKITVQ | 2.11 kcal/mol |
| TYTFKVDNKDQAKKAAKWAKKLGLSFQIEKHGKTFKITVQ | 2.35 kcal/mol |
| TYTFKVDNKDQAKKAAKWAKKLGLSFQIEKHGHTFKITVQ | 2.1 kcal/mol |
| TYTFKVDNKDQAKKAAKWAKKLGLSFQIEKHGLTFKITVQ | 2.14 kcal/mol |
| TYTFKVDNKDQAKKAAKWAKKLGLSFQIEKHGATFKITVQ | 2.18 kcal/mol |
| TYTFKVDNKDQAKKAAKWAKKLGLSFQIEKHGPTFKITVQ | 2.12 kcal/mol |
| TYTFKVDNKDQAKKAAKWAKKLGLSFQIEKHGMTFKITVQ | 2.1 kcal/mol |
| TYTFKVDNKDQAKKAAKWAKKLGLSFQIEKHGGTFKITVQ | 2.23 kcal/mol |
| TYTFKVDNKDQAKKAAKWAKKLGLSFQIEKHGETFKITVQ | 2.38 kcal/mol |
| TYTFKVDNKDQAKKAAKWAKKLGLSFQIEKHGWTFKITVQ | 1.76 kcal/mol |
| TYTFKVDNKDQAKKAAKWAKKLGLSFQIEKHGFTFKITVQ | 2 kcal/mol |
| TYTFKVDNKDQAKKAAKWAKKLGLSFQIEKHGQTFKITVQ | 2.16 kcal/mol |
| TYTFKVDNKDQAKKAAKWAKKLGLSFQIEKHGITFKITVQ | 1.91 kcal/mol |
| TYTFKVDNKDQAKKAAKWAKKLGLSFQIEKHGVTFKITVQ | 1.95 kcal/mol |
